Where a chain is given by its changes, count along the chain named. No end group written: not given here.
B1: V0009 (antibody, V domains shown)
VH: EVQLVESGGALVQPGGSLSLSCAASGFTFTDYYMSWVRQPPGKALEWLALIRNKAKGFTTEYSASVKGRFTISRDNSQSILLFQMNDLRADDSATYYCVRDINYWGQGTTLTVSS
VL: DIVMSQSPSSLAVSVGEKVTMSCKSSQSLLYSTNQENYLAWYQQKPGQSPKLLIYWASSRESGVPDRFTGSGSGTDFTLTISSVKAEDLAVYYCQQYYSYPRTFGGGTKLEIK
B2: V0022 (antibody, V domains shown)
VH: QVQLQQPGTELVKPGSSVNLSCKASGFTFTRYWMHWVKERPGHGLEWIGNINPNNGGTDFNEKFKNKATLTVHKSSTTVFIQLSSLTSEDSAVYYCARGTGTGAMDYWGQGTSVTVSS
VL: DVVMTQTPLSLPVSLGDQASISCRSSQSLVHNNGITYLYWYLQKPGQSPKLLIYRVSNRFSGVPDRFGGSGSGTDFTLKISRVEAEDLGVYFCFQGTHVPRTFGGGTKLEIK
B3: V0052 (antibody, V domains shown)
VH: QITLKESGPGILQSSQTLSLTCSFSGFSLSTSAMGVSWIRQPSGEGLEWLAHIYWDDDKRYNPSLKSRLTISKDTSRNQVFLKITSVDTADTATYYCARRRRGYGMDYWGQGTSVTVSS
VL: SIVMTQTPKFLLVSAGDRVTITCKASQSVSNDVAWYQQKPGQSPKLLIYYASNRCTGVPDRFTGSGYGTDFTFTISTVQAEDLAVYFCQQDYRSPLTFGAGTKLELK
B4: V0023 (antibody, V domains shown)
VH: QVQLQQPGTELVKPGASVKLSCKASGYTFTIFWMHWVKQRPGHGLEWIGKINPNNGGGDYNEKFKSKATLTVDKSSTTAYLQLSSLTSEDSAVYYCARGTGTGAMDYWGQGTSVTVSS
VL: B2 VL with Q18H, N32S, Y37H, K44R, S48T, G68S, R82S, K112E
B5: V0004 (antibody, V domains shown)
VH: QVQLQQPGAELVKPGASVKLSCKASDYTFTNYWMHWVKQRPGRGLEWIGRIDPNSGGTRYNEKFKNKATLTVDKPSSTAYMHLSSLTSEDSAVYYCAGDFDVWGTGTTVTVSS
VL: DIQMTQSPASLSASVGETVTITCRASGNIHNYLAWYQQRQGKSPQLLVYNAKTLPDGVPSRFSGSGSGTQYSLKINSLQPEDFGSYCCQHFWSTPLTFGAGTKLELK
B6: V0024 (antibody, V domains shown)
VH: B4 VH with I31R, H43Q, K50N, G58T, Y60N, K63R, K74R, T77S, L81M
VL: B2 VL with N32S, I35N, Y37H, N58S, G68S
B7: V00018 (antibody, V domains shown)
VH: QVQLQQPGADLVRPGSSVKLSCKASGYTFTRSWMHWVKQRPIEGLEWIGNIDPSDSEAHYNQKFKDKATLTVDKFSNTAYMQLSSLTSEDSAVYYCARWDDFYVAYWGQGTLVTVSA
VL: DIVLTQSPASLAVSLGQRATISCRASKSVSTSGYSYIHWYQQKPGQPPKLLIYLASNLESGVPARFSGSGSGTDFTLNIHPVEEEDAATYYCQHSRELPWTFGGGTKLEIK

Legend:
[1] = target: T1, enriched paired helical filament tau protein (ePHF) (human, phosphorylated residues of pathological tau, sites not stated); assay: follow up analysis, method not stated
[2] = target: T1, enriched paired helical filament tau …; assay: direct ELISA
Protocol: (§1) Variable domain nucleic acid sequences from antibodies obtained from immunizations described above were used to prepare recombinant mouse IgG antibodies. These candidate antibodies were analyzed for binding to ePHF and specificity for ePHF over wild type tau by direct ELISA.
(§2) For direct ePHF and wildtype tau ELISA, plates were first coated with ePHF or wild type tau. Antigen solutions were prepared in PBS and 50 μL were pipetted into each well. Plates were covered and incubated for one hour at 37° C. or overnight at 4° C. Plates were then washed and blocked by addition of 150 μl of blocking buffer to each well and incubated one hour at room temperature. Plates were then washed before addition of serially diluted candidate antibody samples prepared in blocking buffer. Detection of candidate antibody binding was carried out by washing plates and adding a solution of enzyme-labeled secondary antibody in blocking buffer to each well. Secondary antibody binding was detected by addition of substrate and spectrophotometric analysis of resulting reaction product.

[3] = target: iPHF (Homo sapiens (Human), UniProt P10636-8); assay: Octet, antibody on biosensor tips
Protocol: Anti-human tau antibodies were assessed for affinity for iPHF by Octet (ForteBio, Menlo Park, CA) analysis. Recombinant mouse IgG antibodies were prepared with clone-specific variable domain pairs selected from those presented in Table 3 and mouse IgG1 constant domains. Candidate antibodies were immobilized on biosensor tips (ForteBio) in kinetic buffer (ForteBio). Biosensor tips were then washed before introduction of a solution of iPHF in kinetic buffer for analysis of association and dissociation with candidate antibodies. Affinity measurements (K_D) were obtained using Data Analysis HT version 11.1 and corrected for background and high-frequency noise.

[4] = target: T2, peptides corresponding with residues 413-430 of human tau (human, also: biotin, position not given here, phosphorylated residues, sites not given here); assay: Pepscan biotinylated peptides, BLI or colorimetric detection
T2 peptide: STGSIDMVDSPQLATLAD
Protocol: (§3) Recombinant mouse IgG antibodies were prepared with clone-specific variable domain pairs selected from those presented in Table 3 and mouse IgG1 constant domains. Epitope analysis was carried out with different anti-tau antibodies using a peptide scanning approach (e.g., see Verelst, J. et al. Front Mol Biosci. 2020 Mar. 31; 7:48). Libraries of overlapping synthetic biotinylated peptides corresponding to phosphorylated human tau (Pepscan, Lelystad, NL) were obtained and used to coat assay plate wells, each with individual library members. Recombinant mouse IgG antibodies were prepared with clone-specific variable domain pairs selected from those presented in Table 3 and mouse IgG1 constant domains. Antibody binding to peptides in each well was analyzed using colorimetric detection of peptide-antibody complexes with labeled secondary antibody or by associating biotinylated peptides with streptavidin coated biosensors in assay wells and assessing antibody binding by bio-layer interferometry (BLI)-based detection.

[5] = target: T3, residues 175-191 of human tau (human, also: biotin, site not given here, phosphorylated residues, sites not given here); assay: as above
T3 peptide: TPPAPKTPPSSGEPPKS
Protocol: as §3

[6] = target: T4, residues 383-400 of human tau (human, also: biotin, site not given here, phosphorylated residues, sites not given here); assay: as above
T4 peptide: KAKTDHGAEIVYKSPVVS
Protocol: as §3

[7] = target: T5, residues 223-238 of human tau (human, also: biotin, site not given here, phosphorylated residues, sites not given here); assay: as above
T5 peptide: PKKVAVVRTPPKSPSS
Protocol: as §3

[8] = target: T6, residues 57-72 of human tau (human, also: biotin, site not given here, phosphorylated residues, sites not given here); assay: as above
T6 peptide: EEPGSETSDAKSTPTA
Protocol: as §3

[9] = target: wild type tau (Homo sapiens (Human), UniProt P10636-8); assay: direct ELISA
Protocol: as §1, §2

Binder | selectivity for ePHF over wild type tau [1] [fold] | EC50 [2] [nM] | Kd [3] [nM] | Kd [4] [nM] | Kd [5] [nM] | Kd [6] [nM] | Kd [7] [nM] | Kd [8] [nM] | EC50 [9] [nM]
B1 | > 100 | 0.038 | 0.2 |  |  |  |  |  | 
B2 | > 100 | 0.07 | 0.3 | 0.306 |  |  |  |  | 
B3 | > 100 |  | 0.6 |  | 7.24 | 12.6 | 2.08 | 14 | 
B4 | > 100 | 0.11 | 4 | 0.207 |  |  |  |  | 
B5 | 100 | 0.083 | 20 |  |  |  |  |  | 
B6 |  |  |  | 0.225 |  |  |  |  | 
B7 |  | 0.718 |  |  |  |  |  |  | 0.238
